Drawing on article PMC3920732, this text covers Kd for one substance.

This assay deals with α7/5HT3A chimaeric receptor (control, non-mutant). Put plainly: radioligand binding.

Where “and” joins values, the source holds several entries; their conditions need not be identical. Equal values may be shown once.

The Kd is the equilibrium constant for the complex coming apart. Read a low Kd as higher affinity. With “125I-labelled α-bungarotoxin (from UniProt P60615 22-95) (natural protein)”, the Kd was 11.5 nM and 12.2 nM and 8.1 nM.
